PMC4274631 (RNA, 2015)
Residue numbers refer to the chain shown, from its start. Read-outs that look alike come from different tables or passages of the source. Where no end group is shown, it is not given here. fluorescein = fluorescein label

Tests used:
[1] = test system: S. pombe RNA triphosphatase Pct1; settings: ref Pei et al. 2001b; cited from earlier work
Pct1 = biological target: T1, Pct1 (Schizosaccharomyces pombe, UniProt Q9P6Q6); type: binding, S. pombe; settings: 180-fold higher than Kd for Spt5-(801–898)
T1 sequence (Q9P6Q6 1-303): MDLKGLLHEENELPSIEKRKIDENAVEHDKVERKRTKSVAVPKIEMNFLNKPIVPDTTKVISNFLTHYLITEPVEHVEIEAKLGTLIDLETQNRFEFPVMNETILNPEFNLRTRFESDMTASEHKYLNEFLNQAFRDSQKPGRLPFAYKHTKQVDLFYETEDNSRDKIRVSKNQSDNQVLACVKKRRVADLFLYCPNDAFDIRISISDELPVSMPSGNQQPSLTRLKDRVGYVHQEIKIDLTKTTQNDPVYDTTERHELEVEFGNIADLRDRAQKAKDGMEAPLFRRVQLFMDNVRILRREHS

Plus3 domain of Rtf1 = settings: phosphorylated CTR peptide; pdb 4L1U; ref Wier et al. 2013; cited from earlier work
[2] = biological target: T2, S. pombe RNA triphosphatase Pct1 (wild type) (S. pombe, UniProt Q9P6Q6 1-303); assay: fluorescence polarisation
T2 sequence (looked up): T1 sequence (Q9P6Q6 1-303)

[3] = biological target: T3, S. pombe RNA triphosphatase Pct1 M100A (S. pombe, UniProt Q9P6Q6 1-303, M100A); assay: fluorescence polarisation
T3 sequence (looked up): T1 sequence (Q9P6Q6 1-303) with M100A

[4] = biological target: T4, S. pombe RNA triphosphatase Pct1 M100R (S. pombe, UniProt Q9P6Q6 1-303, M100R); assay: fluorescence polarisation
T4 sequence (looked up): T1 sequence (Q9P6Q6 1-303) with M100R

[5] = biological target: T2, S. pombe RNA triphosphatase Pct1 (wild …); assay: fluorescence polarisation; remark: listed apart in the source
[6] = biological target: T2, S. pombe RNA triphosphatase Pct1 (wild …); assay: crystal structure
[7] = biological target: T2, S. pombe RNA triphosphatase Pct1 (wild …); assay: fluorescence polarisation; remark: listed apart in the source
Pct1 M100A = biological target: T5, Pct1 M100A (Schizosaccharomyces pombe, UniProt Q9P6Q6, M100A); assay: Fluorescence polarization binding of Spt5-; design: species or system S. pombe; settings: Pct1 M100A versus wild-type Pct1
T5 sequence (Q9P6Q6 1-303 M100A): T1 sequence (Q9P6Q6 1-303) with M100A

O=P(O)(O)OP(=O)(O)OP(=O)(O)O [tripolyphosphate]
competitive inhibition [1]: high-affinity competitive inhibitor

SGSKTPAWNSGSKTPAWNSGSK
Kd relative to the Kd of Pct1 for the longer Spt5-(801–898) ligand (Pct1): 180 fold

SGSRTPPMYGSQ
binding to Rtf1 Plus3 domain in crystal (Plus3 domain of Rtf1): bound

B1: BODIPY-FL-N(Cys)-Spt5-(801-898) (domain or fragment, S. pombe)
chain: CISTADGPNVPNWAQGARTPAVANGSRTPAWNTGSRTPAWNSGSKTPAWNSGSRTPAWNSGNKTPAWNAGSRTPAWNSGNKTPAWNVGNKTPAWNSGAK
modifications: BODIPY-FL at the N-terminus via maleimide chemistry (on the added N-terminal cysteine)
Kd [2]: 0.68 ± 0.1 µM
Kd [3]: 1.4 ± 0.15 µM
Kd [4]: 21.4 ± 2.4 µM

fluorescein-SGSKTPAWNSGSKTPAWNSGSK [fluorescein-labeled 22-amino acid synthetic Spt5 CTD peptide SGSKTPAWNSGSKTPAWNSGSK]
Kd [5]: 124 ± 10 µM

TPAWNSGSRTPAWNSGSK [18-mer Spt5-CTD peptide TPAWNSGSRTPAWNSGSK, Spt5-(845-862)]
stoichiometry N [6]: 2 peptides per Pct1 homodimer

SGSKTPAWNSGSKTPAWNSGSK [unphosphorylated 22-amino acid synthetic Spt5 CTD peptide SGSKTPAWNSGSKTPAWNSGSK (untagged)]
Ki [7]: 79 ± 9 µM

B2: Spt5-(801–898): purified recombinant Spt5-(801–898) protein, comprising 10 nonamer repeats, labeled at the N-terminus with BODIPY-FL (protein)
chain: B1 chain
modifications: BODIPY-FL at the N-terminus via maleimide chemistry (on the added N-terminal cysteine)
effect of M100A on Spt5 CTD binding (Pct1 M100A): twofold
